Test results from paper PMC3688715.

Molecular target: Heteropneustes fossilis hepatic cytosolic arginase (ARG I) (Heteropneustes fossilis (endogenous in liver))
Test: SEC + other: SDS-PAGE and western blotting; native mass of the purified enzyme by gel filtration on Sephadex G-150 with four standard proteins (75±3 kDa); subunit mass by SDS-PAGE and western blotting (24 kDa); single band on native PAGE

## Heteropneustes fossilis hepatic cytosolic arginase (ARG I) (enzyme)
  stoichiometry N: 3
